Experimental data as given in the supplement of paper PMC10567573.

B1: CCDC6 (parent)
chain: ASVTIQARAEQEEEFISNTLFKKI
B2: ZNF449 (parent)
chain: TLHQRTHTEERPFKCNYCGKSFRQ

Variants of: B1
Test: protein stability index of a GFP-peptide fusion (GPS, HEK-293T) (PSI 1-6); higher = more stable
Settings: c terminus: a fixed tail appended
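Note: lentivirally expressed fusions sorted by FACS into six bins by GFP to DsRed ratio, PSI derived from sequencing read proportions per bin multiplied by bin number.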

| Variant | protein stability index |
| --- | --- |
| L20S | 4.68 |
| L20W | 2.91 |
| L20F | 3.46 |
| L20K | 4.15 |
| L20D | 4.76 |
| L20Y | 3.69 |
| L20Q | 4.62 |
| L20V | 3.82 |
| L20R | 4.09 |
| L20I | 3.89 |
| L20M | 4.44 |
| L20N | 4.42 |
| L20G | 4.66 |
| L20E | 4.51 |
| L20H | 4 |
| L20P | 4.14 |
| L20T | 4.64 |
| L20C | 3.9 |
| L20A | 3.94 |
| F21G | 4.71 |
| F21P | 4.52 |
| F21H | 3.88 |
| F21C | 4.76 |
| F21T | 4.49 |
| F21L | 4.78 |
| F21R | 4.54 |
| F21W | 3.39 |

| Variant | protein stability index |
| --- | --- |
| F21Y | 3.72 |
| F21I | 3.58 |
| F21K | 4.7 |
| F21Q | 5.01 |
| F21E | 4.93 |
| F21V | 4.39 |
| F21A | 4.66 |
| F21N | 4.42 |
| F21S | 4.37 |
| F21M | 4.46 |
| F21D | 4.87 |
| I24R | 4.03 |
| I24E | 4.58 |
| I24T | 4.76 |
| I24S | 4.17 |
| I24P | 4.25 |
| I24M | 3.83 |
| I24C | 4.52 |
| I24G | 4.48 |
| I24H | 4.37 |
| I24Q | 4.36 |
| I24N | 4.71 |
| I24K | 4.8 |
| I24W | 3.59 |
| I24A | 4.14 |
| I24L | 4.23 |
| I24V | 3.71 |

| Variant | protein stability index |
| --- | --- |
| I24D | 4.85 |
| I24Y | 3.56 |
| I24F | 3.66 |
| K22L | 2.19 |
| K22P | 4.13 |
| K22D | 3.49 |
| K22E | 3.74 |
| K22G | 3.49 |
| K22N | 3.98 |
| K22Y | 2.21 |
| K22T | 2.86 |
| K22W | 2.1 |
| K22R | 2.92 |
| K22A | 2.87 |
| K22C | 2.17 |
| K22H | 3.5 |
| K22F | 1.94 |
| K22M | 1.74 |
| K22V | 1.91 |
| K22Q | 3.7 |
| K22S | 3.64 |
| T19Q | 3.86 |
| T19P | 4 |
| T19M | 3.03 |
| T19L | 2.82 |
| T19R | 3.84 |
| T19W | 3.13 |

| Variant | protein stability index |
| --- | --- |
| T19N | 3.12 |
| T19K | 3.72 |
| T19V | 3.21 |
| T19S | 3.47 |
| T19Y | 2.96 |
| K23E | 3.89 |
| K23G | 3.21 |
| K23T | 3.34 |
| K23Y | 1.98 |
| K23A | 3.23 |
| K23H | 3.08 |
| K23M | 2.35 |
| K23V | 2.73 |
| K23N | 3.37 |
| K23I | 2.52 |
| K23S | 3.04 |
| K23W | 2.23 |
| K23C | 2.96 |
| K23D | 3.21 |
| K23Q | 3.17 |
| K23F | 2.01 |
| K23R | 3.28 |
| K23L | 2.11 |
| K23P | 3.19 |

Variants of: B2
Test: as above
Settings: c terminus: a fixed tail appended

| Variant | protein stability index |
| --- | --- |
| L2P | 2.88 |
| L2W | 1.83 |
| L2H | 2.45 |
| L2T | 2.27 |
| L2D | 2.77 |
| L2Q | 2.41 |
| L2C | 3.15 |
| L2A | 2.95 |
| L2Y | 2.64 |
| L2I | 2.17 |
| L2R | 2.75 |
| L2M | 2.58 |
| L2V | 2.4 |
| L2N | 2.59 |
| L2E | 3.64 |
| L2G | 3.08 |
| L2S | 2.7 |
| L2F | 3.22 |
| L2K | 2.74 |
| H3A | 2.76 |
| H3R | 2.82 |
| H3F | 2.47 |
| H3V | 1.98 |
| H3I | 1.99 |
| H3G | 2.4 |
| H3N | 2.62 |

| Variant | protein stability index |
| --- | --- |
| H3Y | 2.15 |
| H3Q | 2.83 |
| H3C | 3.27 |
| H3E | 2.87 |
| H3W | 2.82 |
| H3D | 2.62 |
| H3K | 2.89 |
| H3L | 1.85 |
| H3T | 2.42 |
| H3M | 2.25 |
| H3P | 2.66 |
| H3S | 2.1 |
| T1Y | 2.01 |
| T1Q | 2.19 |
| T1K | 3.28 |
| T1H | 2.66 |
| T1P | 2.56 |
| T1V | 3.17 |
| T1S | 3.59 |
| T1A | 2.12 |
| T1M | 2.39 |
| T1R | 2.02 |
| T1E | 2.64 |
| T1G | 2.89 |
| T1C | 3.64 |
| T1W | 2.01 |

| Variant | protein stability index |
| --- | --- |
| T1N | 2.87 |
| T1L | 2.04 |
| T1I | 2.21 |
| T1D | 2.46 |
| T1F | 2.08 |
| T6R | 2.28 |
| T6F | 1.76 |
| T6H | 1.55 |
| T6I | 2.33 |
| T6P | 1.76 |
| T6M | 2.03 |
| T6D | 2.56 |
| T6C | 3.06 |
| T6S | 3.12 |
| T6E | 2.67 |
| T6Q | 2.54 |
| T6W | 2 |
| T6G | 1.85 |
| T6A | 2.38 |
| T6Y | 2.25 |
| T6N | 2.08 |
| P12E | 3.26 |
| P12N | 2.41 |
| P12H | 2.32 |
| P12D | 3.12 |
| P12I | 3.29 |

| Variant | protein stability index |
| --- | --- |
| P12C | 2.94 |
| P12W | 2.89 |
| P12A | 2.81 |
| P12S | 2.52 |
| P12Q | 2.79 |
| P12G | 2.52 |
| P12T | 2.26 |
| P12L | 3.05 |
| P12Y | 2.77 |
| P12K | 2.89 |
| P12F | 2.25 |
| P12R | 2.21 |
| P12M | 2.45 |
| P12V | 2.57 |
| H7N | 2.12 |
| H7C | 2.66 |
| H7K | 2.27 |
| H7Q | 2.88 |
| H7D | 2.65 |
| H7Y | 1.94 |
| H7R | 2.48 |
| H7F | 2.13 |
| H7A | 1.65 |
| H7G | 1.97 |
| H7I | 2.37 |
| H7T | 2.8 |

| Variant | protein stability index |
| --- | --- |
| H7W | 2.88 |
| H7V | 4.2 |
| H7P | 2.43 |
| H7M | 2.29 |
| H7L | 2 |
| H7S | 2.4 |
| H7E | 2.5 |
| Q4P | 2.92 |
| Q4I | 1.71 |
| Q4E | 2.85 |
| Q4F | 2.42 |
| Q4Y | 2.03 |
| Q4H | 1.73 |
| Q4L | 1.9 |
| Q4W | 2.24 |
| Q4T | 2.67 |
| Q4V | 2.38 |
| Q4C | 3.33 |
| Q4D | 2.41 |
| Q4R | 3.24 |
| Q4K | 2.94 |
| Q4M | 2.08 |
| Q4A | 2.08 |
| Q4G | 2.12 |
| Q4N | 2.75 |
| Q4S | 2.12 |

| Variant | protein stability index |
| --- | --- |
| F13C | 3.05 |
| F13I | 3.01 |
| F13A | 2.14 |
| F13K | 2.28 |
| F13G | 2.79 |
| F13H | 1.39 |
| F13D | 2.92 |
| F13L | 2.07 |
| R5H | 2.73 |
| R5V | 3.27 |
| R5F | 1.78 |
| R5N | 1.65 |
| R5M | 1.76 |
| R5I | 1.97 |
| R5Q | 1.89 |
| R5S | 2.45 |
| R5C | 4.17 |
| R5P | 2.12 |
| R5L | 2.24 |
| R5E | 3.05 |
| R5D | 2.91 |
| R5W | 2.15 |
| R5A | 2.44 |
| R5G | 1.83 |
| R5Y | 2.4 |
| R5K | 2.77 |

| Variant | protein stability index |
| --- | --- |
| R5T | 2.45 |
| E10I | 3.39 |
| E10K | 2.03 |
| E10N | 2.48 |
| E10H | 1.78 |
| E10R | 1.81 |
| E10F | 1.48 |
| E10A | 1.95 |
| E10P | 1.91 |
| E10W | 2.46 |
| E10Y | 2.55 |
| E10S | 2.1 |
| E10C | 1.74 |
| E10L | 1.55 |
| E10Q | 2.56 |
| E10M | 2.73 |
| E10G | 1.18 |
| E10V | 3.31 |
| E10T | 2.25 |
| E9K | 3.15 |
| E9P | 1.93 |
| E9R | 2.26 |
| E9D | 2.15 |
| E9S | 2.55 |
| E9W | 1.77 |
| E9H | 2.71 |

| Variant | protein stability index |
| --- | --- |
| E9N | 1.88 |
| E9C | 2.4 |
| E9F | 1.25 |
| E9Y | 2.19 |
| E9I | 1.8 |
| E9G | 2.97 |
| E9Q | 2.72 |
| E9L | 1.2 |
| E9A | 2 |
| E9V | 1.76 |
| R11M | 2.25 |
| R11L | 2.39 |
| R11S | 2.25 |
| R11H | 2.53 |
| R11D | 3.19 |
| R11F | 1.92 |
| R11Y | 2.11 |
| R11T | 2.33 |
| R11P | 2.12 |
| R11N | 2.42 |
| R11Q | 2.95 |
| R11E | 3.24 |
| R11C | 2.24 |
| R11I | 2.08 |
| R11W | 2.09 |
| R11A | 2.39 |

| Variant | protein stability index |
| --- | --- |
| R11V | 2.54 |
| R11K | 2.5 |
| T8Y | 2.54 |
| T8V | 2.59 |
| T8R | 1.99 |
| T8H | 1.18 |
| T8W | 1.82 |
| T8F | 2.34 |
| T8A | 2.29 |
| T8Q | 2.69 |
| T8N | 1.94 |
| T8S | 2.65 |
| T8P | 2.4 |
| T8K | 3.13 |
| T8M | 2.6 |
| T8G | 2.04 |
| T8I | 2.56 |
| T8C | 2.3 |
| T8D | 2.62 |
| T8E | 3.07 |
| T8L | 1.64 |
